The source of these data is publication PMC12168134, “Improving the solubility of single domain antibodies using VH‐like hallmark residues” (Protein Science : A Publication of the Protein Society, 2025).

What is called stoichiometry N is the number of molecules, sites or subunits per partner or assembly.

Data set [1] deals with the molecule itself. The data set can be described thus: SEC; Hiload 16/600 Superdex 200 pg in PBS; Nlgn2 extracellular domain with His6. Background: Size exclusion chromatography separates by hydrodynamic size, large species first.
Data set [2] deals with the molecule itself. The data set can be described thus: SEC; Nlgn2 with Avitag; 10 mM HEPES-NaOH pH 7.4, 150 mM NaCl, 3 mM CaCl2.

B1: Nlgn2 extracellular domain with His6 tag in the C-terminus (domain or fragment, mouse, UniProt Q69ZK9 15-678, looked up)
chain: QRGGGGPGGGAPGGPGLGLGSLGEERFPVVNTAYGRVRGVRRELNNEILGPVVQFLGVPYATPPLGARRFQPPEAPASWPGVRNATTLPPACPQNLHGALPAIMLPVWFTDNLEAAATYVQNQSEDCLYLNLYVPTEDGPLTKKRDEATLNPPDTDIRDSGKKPVMLFLHGGSYMEGTGNMFDGSVLAAYGNVIVVTLNYRLGVLGFLSTGDQAAKGNYGLLDQIQALRWLSENIAHFGGDPERITIFGSGAGASCVNLLILSHHSEGLFQKAIAQSGTAISSWSVNYQPLKYTRLLAAKVGCDREDSTEAVECLRRKSSRELVDQDVQPARYHIAFGPVVDGDVVPDDPEILMQQGEFLNYDMLIGVNQGEGLKFVEDSAESEDGVSASAFDFTVSNFVDNLYGYPEGKDVLRETIKFMYTDWADRDNGEMRRKTLLALFTDHQWVAPAVATAKLHADYQSPVYFYTFYHHCQAEGRPEWADAAHGDELPYVFGVPMVGATDLFPCNFSKNDVMLSAVVMTYWTNFAKTGDPNQPVPQDTKFIHTKPNRFEEVVWSKFNSKEKQYLHIGLKPRVRDNYRANKVAFWLELVPHLHNLHTELFTTTTRLPPYATRWPPRTPGPGTSGTRRPPPPATLPPESDIDLGPRAYDRFPGDSRDYSTELS
notes: Neuroligin 2 (Nlgn2), mouse, extracellular domain, residues 15-678; Construct used to immunise the alpaca; main SEC peak was a dimer; also called recombinant Nlgn2 extracellular domain; mouse Nlgn2 (15-678); source: Expi293F cells, supernatant, purified (Ni-NTA, SEC); not shown: His6, C-terminal, kept
Regarding B1, the “stoichiometry N” value in data set [1] came out at 2.

B2: Biotinylated recombinant Nlgn2 extracellular domain with Avitag (domain or fragment, mouse, UniProt Q69ZK9 15-678, looked up)
chain: QRGGGGPGGGAPGGPGLGLGSLGEERFPVVNTAYGRVRGVRRELNNEILGPVVQFLGVPYATPPLGARRFQPPEAPASWPGVRNATTLPPACPQNLHGALPAIMLPVWFTDNLEAAATYVQNQSEDCLYLNLYVPTEDGPLTKKRDEATLNPPDTDIRDSGKKPVMLFLHGGSYMEGTGNMFDGSVLAAYGNVIVVTLNYRLGVLGFLSTGDQAAKGNYGLLDQIQALRWLSENIAHFGGDPERITIFGSGAGASCVNLLILSHHSEGLFQKAIAQSGTAISSWSVNYQPLKYTRLLAAKVGCDREDSTEAVECLRRKSSRELVDQDVQPARYHIAFGPVVDGDVVPDDPEILMQQGEFLNYDMLIGVNQGEGLKFVEDSAESEDGVSASAFDFTVSNFVDNLYGYPEGKDVLRETIKFMYTDWADRDNGEMRRKTLLALFTDHQWVAPAVATAKLHADYQSPVYFYTFYHHCQAEGRPEWADAAHGDELPYVFGVPMVGATDLFPCNFSKNDVMLSAVVMTYWTNFAKTGDPNQPVPQDTKFIHTKPNRFEEVVWSKFNSKEKQYLHIGLKPRVRDNYRANKVAFWLELVPHLHNLHTELFTTTTRLPPYATRWPPRTPGPGTSGTRRPPPPATLPPESDIDLGPRAYDRFPGDSRDYSTELS
modifications: biotin on the Avitag (biotinylated with BirA)
notes: Neuroligin 2 (Nlgn2), extracellular domain; residues 15-678 of mouse Nlgn2 are stated only for the His6 construct used for immunisation, not for this Avitag construct; probably the same; Eluted as a dimeric peak in SEC; also called Nlgn2 with Avitag; Biotinylated Nlgn2; source: purified by SEC, biotinylated with BirA; not shown: Avitag, C-terminal, kept
For the protein B2, the “stoichiometry N” value in data set [2] stood at 2.
